Assay: yeast display, Sf9 membrane polyspecificity reagent, FACS + sequencing; frameworks hold sequencing errors
Outline: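 Nanobodies came from a synthetic yeast display library in Saccharomyces cerevisiae BJ5465, induced with galactose for 36–48 hours and stained for 1 hour at 4 °C with 10% biotinylated, detergent-solubilized Sf9 membrane reagent. Cells were enriched on streptavidin microbeads and then FACS-sorted, with low and high (top ~1%) gates set on anti-HA fluorescence for expression and streptavidin fluorescence for reagent binding. Each polyreactivity label reflects the gate a clone came from. Genes were amplified by colony PCR, sequenced by MiSeq 2 × 250 and filtered by CDR length.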

Sequence	polyreactivity (PSR sort gate)
QVQLVESGGGLDQAGGSLRLSCAASGSTFYPYAMGWYRQAPGKERDFVAAISYSAGSTYYADSVKGRFTISRDNAKNTVYLQMHSLKPEDTAVYYCADYGWYTYQTSYDYWGQGTQVTVSS	low polyreactivity
QVQLVESGGGLDQAGGSLRLSCAASGSTLPVYALGWNRQAPGKERELVAAITDSGGNTYYADSVKGRFTISRDNAKNTVYLQMNSLKPEDTAVYYCNADAQSTSGYGYYAPYWMDYWGQGTQVTVSS	low polyreactivity
QVQLVESGGGLDQAGGSLRLSCAASGYTFNLNAMGWYRQAPGKERELVAAISSGDSTDYADSVKGRFTISRDNAKNTVYLQMHSLQPEDTAVYYCNADLPVVWRRDFWGDLYWGQATQVTVSS	low polyreactivity
QVQLVESGGGLDQAGGSLRLSCAASGYTYGTYDMRWYRQAPGKERELVAAISIGGSTNYADSVKGRFTISRDNAKNTVYLQMNSLKPEDTAVYYCAAEVNVGTLLLSVIVEDGDYWGQGTQVTVSS	low polyreactivity
QVQLVESGGGLDQAGGSLRLSCAAYGVPSLTMNMGWYRQAPGKERELFATIYSGGSTYYADSVKWRFTISRDNAKNTVYLQMNRLKPEDTAVYYCAARQSYYYSRSYIRGDYWGQGTQVTVSS	high polyreactivity
QVQLVESGGGLDQAGGSLRLSSAASGFIFDGNAMGWYRQAPGKERELVASITKSSGRTYYADSVKGRFTISRDNAKNTVYLQMNSLKPEDTAVYYCNKARRSVQPYGRQYDYWGQGTQVTVSS	high polyreactivity
QVQLVESGGGLDQAGGSLRLSSAASGRIFSKSAMGLYRQAPGKETELVAAMTSGGRTYYADSVKGRFTISRDIAKNTVYLQMNSLKPEDTAVYYCAARYVQVVRKFGYWVQGTQVTVSS	high polyreactivity
QVQLVESGGGLDQAGGSLRLTCADSGSIFIRNAMGWYRHAPGKESELVAAISGSGSSTYYADSVKGRFTISRDNAKNTVYLQMNSLKPEDTAVYYCNTDRTHSYQYGGYDYWGQGTQVTVSS	low polyreactivity
QVQLVESGGGLDQAGGSLSLSCAASGIIFAGNAMGWYRQPPGKERELVAAISSNGGSTYYADSVKGRFTISRDNAKNTVYLQMNSLKPEDTAVYYCAADRVYWGRVQGYYWGQGTQVTVSS	low polyreactivity
QVQLVESGGGLDQAGVSLRLSCAASGSTFSANAMGWFRQAPGKERELVAAISSGDITYYADSVKGRFTISRDNAKNTVYLQMNSLKPEDTAVYYCAKYTRPTGNVDDGFEYWGQGTQVTVSS	low polyreactivity
QVQLVESGGGLDQARGSLRLSCAASGLTFASNAMGWYRQAPGKERELVAAISWSDGSTYYADSVKGRFTISRDNAKNTVYLQMNSLKPEDTAVYYCAAEPPGFRTSRVGYWGQGTQVTVSS	low polyreactivity
QVQLVESGGGLDQARGSLRLSCAASGRTSLRYAMGWYRQAPWKERELVAAITSSGATTYYADSVKGRFTISRDNAKNTVYLQMNSLKPEDTAVYYCAAVYSAKRGSGGFGYWGQGTQVTVSS	high polyreactivity
QVQLVESGGGLDQARGTLRLSCAASGSTILGNAMGWYRHAPGKERELVAGITSGGTTNYADSVKGRFTISRVNAKNNVYLQMTSLKPEDTSVYYCNAGGHLEMNYWGKGTQVTVSS	low polyreactivity
QVQLVESGGGLDQEGVRLRLSCAASGRTFRIYAMGLYRQAPGNERELVAAISSDASTSYADSVKGRFTISRDNPKNTVYFQMNSLKPEATAVYYSAADPGPYFDWGYDFWGQGTQVTVSS	low polyreactivity
QVQLVESGGGLEQAGGSLRISCAASVSTVRFNAMGWYIQEPGKERQLVAVIRWRGGTTYYADSVKGRFTISRDNAKNTVYLQMNSLKPEDPAVYYCNADYWFSYTWHGSYTVGYWGQGTQVTVSS	high polyreactivity
QVQLVESGGGLEQAGGSLRLSCAASGRTFYYYAMGWYRQAPGKERELVAAIRWRGGRTYADSVKGRFTISRDNAKNTVYLQMKSLKPEDTAVYYCAVDSFYRHASLYDYWGQGTQVTVSS	high polyreactivity
QVQLVESGGGLFHAGGSLRLICAASGTTFKYYAMGSYRQAPAIEREFVAAISTRTGNTYYADSVKGRFTISRDNAKNTVYLQMNSLKPEDTAVYYCAARPRQGRGYDFYYWGQGTQVTVSS	high polyreactivity
QVQLVESGGGLFQAAGSLRLSCAASGLTFAYNAMGWYRQAPGKERELDAEISKRGGSTFYADSVKGRFTLSHVNAKNTVYLQMNSLKPEDTAVYYCARGSYPYRSFWLTSDDWGQGTQVTVSS	high polyreactivity
QVQLVESGGGLFQAGGILRLSCAASGFIFSSYAMGLYRLAPGKERELVAAISRSGGRTYYADSVKGRFTISRDYAKNTVYLQMNSLKPEDTAVYYCAARWYGLYLQRYDYWGQGTQVTVSS	high polyreactivity
QVQLVESGGGLFQAGGSHRLSCAASGSTFRVYAMGWYRHAPGKERELVADISRSVTRTYYADSVKGRFTISRDNSKNTFYLQMNSLIPEETAVYYCAAVSYYRRWQTAYYSWGQGTQVTVSS	high polyreactivity
QVQLVESGGGLFQAGGSLGLSCAASGSTFSKYAMGWSRQAPGKERELVAAISSGGRTNYADSVKGRFTISRDNAKNTVYLHMNSLKPEDTAVYDCAALWGYWAYYYWGQGTQVTVSS	low polyreactivity
QVQLVESGGGLFQAGGSLPVSCAASGFIFDDYAMGWYRQAPGKERELVAAISSGGSTNYADSVKGRFTISRDNAKNTVYLQLNSLKPEDSAVYYCADRAGYQFSYNYWGQGTQVTVSS	high polyreactivity

Sequence	polyreactivity (PSR sort gate)
QVQLVESGGGLFQAGGSLRFSCAASGIIFSTNAMGWYRQAPGKERELVATITSSSGRTYYADSVKGRFTISRDNAKNTLYLQMNSLKPEDTAVYYCATGGVLIKGHYYWGQGTQVTVSS	low polyreactivity
QVQLVESGGGLFQAGGSLRIICAASGSIFGAYAMGWYRQAPGKERELVAGIRRAGDSTYYADSVKGRFTISRDYAKNTVYLLMNCMKPEDTAVYYCAAYLYLEYYYRGQGTQVTVSS	low polyreactivity
QVQLVESGGGLFQAGGSLRITCSPSGFIFHGYAMGWYRQAPGKERELVAAISTGTNTNYADSLKGRFTISRDNAKNTVYIQMNRLKPEDTAVYYCNARSADTWYTSRRFYYWGQGTQVTVSS	low polyreactivity
QVQLVESGGGLFQAGGSLRLSCAASGFIFTGYAMGWYRQAPGKASELVAVISYSAGSTYYADSVKGRFTISRDNAKNTVYLQMNSLKPEDTAVYYCAADHGKNLTYDYWGQGTQVTVSS	high polyreactivity
QVQLVESGGGLFQAGGSLRLSCAASGFTFDYYAMGWYRQAPGKERELVADINRSGGSSYYADSVKGRFTISRDNAKNTVYLQMNSLKPEDTAVYYCNARVTPFFYHYPRDYYYWGQGTQVTVSS	high polyreactivity
QVQLVESGGGLFQAGGSLRLSCAASGFTFRANAMGWYRQAPGKERELVAVITGSGRTYYADSVKGRFTISRDNAKNTVYLQMNSLKPEDTAVYYCAARAAYRVSSPGYDSWGQGTQVTVSS	high polyreactivity
QVQLVESGGGLFQAGGSLRLSCAASGGIFFYYAMGGYRQAPGKERELVAAIRTNGGTTYYADSVKGRFTISRDNAKNTVYLQRNRLKTEDTAVYYCPAQPGGYYVRGEFDYWGQGTQVTLSS	low polyreactivity
QVQLVESGGGLFQAGGSLRLSCAASGIIFQRNDMGWYRQAPGKERELVANIRDGGITYADSVKGRFTISRDNAKNTVYLQMNSLKPEDTAVYYCARDDTSPGYCDQSSNAAYYYWGQGTQVTVSS	low polyreactivity
QVQLVESGGGLFQAGGSLRLSCAASGIIFQSYDMAWYRQAPGKERELVAAISRGGGSTYYADSVKGRFTISRDNAKNTVYLQMNSLIPEDTAVYYCAADYRGEYDYWGQGTQVTVSS	low polyreactivity
QVQLVESGGGLFQAGGSLRLSCAASGITFHRYDMVWYRQAPGKERELVADITWCGGSTYYADSVKGRFTISRDNAKNTVYLQMNSLKPEDTAVYYCAADASTYTDTPYDYWGQGSQVTVSS	low polyreactivity
QVQLVESGGGLFQAGGSLRLSCAASGITFPDYAMGWYRQAPGKERELVATISSSGGNTYYADSVKGRFTISRDNAKNTVYLQMNSLKPEDTAVYYCATVSYYLGYDYWGQGTQVTVSS	low polyreactivity
QVQLVESGGGLFQAGGSLRLSCAASGLIFGYYDMGWYRQAPGKERELVASISRNGGCTYYADSVKGRFTISRDNAKNTVYLQMNRLKTEDTAVYYCARTGPWARYSHGLYKSDYWGQGTQVTVAS	high polyreactivity
QVQLVESGGGLFQAGGSLRLSCAASGNIFAYNAMGWYRQAPGKERELVASIRYSGGSTYYADSVKGRFTISRDNAKNTVYLQINSLKPEDTAVYYCAKRGYSSYRTYNYWGQGTQVTVSS	high polyreactivity
QVQLVESGGGLFQAGGSLRLSCAASGRIFGLYAMGWYRQAPGKERELVAAISRGGGSTYYADSVKGRFTISRDNAKNTVYLQMNSLKAEDTAFDFCATGLGYFCRLDYWGQGTQLTVSS	low polyreactivity
QVQLVESGGGLFQAGGSLRLSCAASGRIFGYNAMAGYRQAPGKERELVAVITYSGGSTYYADSVKGRFTISRDNAKNTVYLQMKSLKPEDTAVYYCIARPIDRYSGSGKQWPDYNYWGQGTQFTVSS	low polyreactivity
QVQLVESGGGLFQAGGSLRLSCAASGRIFVFYAMGWYRQAPGKEMELVAAISKSVGPTYYADSVKGRFTISRDYAKNTVYLQMNSLKPEDTAVYYCNKRSASDLWPQYGYWGQGTQVTVSS	low polyreactivity
QVQLVESGGGLFQAGGSLRLSCAASGRIFYYNAMGWYRQAPGKEREFVAAITYRGGSTYYADSVKGRFTISRDNAKITVYLQMNSLKPEDTAVYYCAARSAWQVAPRGRTVAFDYWGQGTQVTVSS	high polyreactivity
QVQLVESGGGLFQAGGSLRLSCAASGRTFDVYDMGWYRQAPGKERELVAAITWSGGSTYYADSVKGRFTISRDNAKNTVYLQMNSLKPEDTAVYYCAAGYYYFWTYDYWGQGTQVTVSS	low polyreactivity
QVQLVESGGGLFQAGGSLRLSCAASGRTFWAYAMGWYRQAPGKERELVAAITTSRGSTNYADSVKGRFTISRDNAKNTVYLQMNSLKPEDTAVYDCNADPTYHVVIGVGYWGQGTQVTVCS	low polyreactivity
QVQLVESGGGLFQAGGSLRLSCAASGSIFFENAMGWYRQAPGKEREFVAASTWSAGGRTDYADSVKGRFTISRDNAKTTVYLQMNSLKPEDTAVYYCARYPTNILYIPVRGYTDMDYWGQGTQVTVSW	low polyreactivity
QVQLVESGGGLFQAGGSLRLSCAASGSIFGKYTMGWYRQAPGKERELVAGITYRAGSTYYADSVKGRFTISRDNAKNTVYLQMNSLKPEDTAVYYCAARFYFRWYYYGSYANYWGQGTQVTVSS	high polyreactivity

Reference: the nanobody polyreactivity screen of Harvey et al. (2022)
